Measured values from paper PMC3471927, “The PduQ Enzyme Is an Alcohol Dehydrogenase Used to Recycle NAD^+ Internally within the Pdu Microcompartment of Salmonella enterica” (PLoS ONE, 2012).

Experiments:
[1] = target: T1, PduP (Salmonella enterica, UniProt Q9XDN1); experiment: thioester formation at […] nm in purified Pdu MCPs; type: biochemical; conditions: 10 mM propionaldehyde, 200 mM 1,2-propanediol, 40 µM NAD+, 100 µM HS-CoA, 100 mM sodium phosphate pH 7.0
T1 construct: native PduP within anaerobically purified Pdu microcompartments (wild-type and pduQ deletion strain BE903)
T1 sequence (Q9XDN1 whole entry): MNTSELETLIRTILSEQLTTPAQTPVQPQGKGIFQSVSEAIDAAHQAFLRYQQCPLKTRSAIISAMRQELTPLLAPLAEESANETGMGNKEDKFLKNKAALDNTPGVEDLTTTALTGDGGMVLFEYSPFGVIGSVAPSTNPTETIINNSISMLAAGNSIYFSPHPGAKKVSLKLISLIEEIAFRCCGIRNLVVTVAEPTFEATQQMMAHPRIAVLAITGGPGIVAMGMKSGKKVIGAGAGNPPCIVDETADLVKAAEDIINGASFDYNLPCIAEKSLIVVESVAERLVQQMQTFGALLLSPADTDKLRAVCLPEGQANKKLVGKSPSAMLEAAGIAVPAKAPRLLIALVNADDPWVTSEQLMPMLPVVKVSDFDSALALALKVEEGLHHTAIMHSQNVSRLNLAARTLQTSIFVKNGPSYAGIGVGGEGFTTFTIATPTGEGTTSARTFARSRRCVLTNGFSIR

[2] = substrate: CCCO; experiment: purified protein; type: biochemical, Salmonella enterica; conditions: 2 mM NAD+, 100 mM Tris-HCl pH 9.0, anaerobic; pH 9.0
[3] = substrate: NC(=O)c1ccc[n+]([C@@H]2O[C@H](COP(=O)(O)OP(=O)(O)OC[C@H]3O[C@@H](n4cnc5c(N)ncnc54)[C@H](O)[C@@H]3O)[C@@H](O)[C@H]2O)c1; experiment: purified protein; type: biochemical, Salmonella enterica; conditions: 800 mM 1-propanol, 100 mM Tris-HCl pH 9.0, anaerobic; pH 9.0
[4] = substrate: NC(=O)C1=CN([C@@H]2O[C@H](COP(=O)(O)OP(=O)(O)OC[C@H]3O[C@@H](n4cnc5c(N)ncnc54)[C@H](O)[C@@H]3O)[C@@H](O)[C@H]2O)C=CC1; experiment: purified protein; type: biochemical, Salmonella enterica; conditions: 150 mM propionaldehyde, 100 mM sodium phosphate pH 7.0, anaerobic; pH 7.0
[5] = substrate: CCC=O; experiment: purified protein; type: biochemical, Salmonella enterica; conditions: 0.4 mM NADH, 100 mM sodium phosphate pH 7.0, anaerobic; pH 7.0

With CCC=O [propionaldehyde] the “thioester formation at 232 nm in purified Pdu MCPs” value [1] was “no measureable PduP activity without added HS-CoA, NAD^+ or propionaldehyde”.

For NC(=O)c1ccc[n+]([C@@H]2O[C@H](COP(=O)(O)OP(=O)(O)OC[C@H]3O[C@@H](n4cnc5c(N)ncnc54)[C@H](O)[C@@H]3O)[C@@H](O)[C@H]2O)c1 [NAD^+], the “thioester formation at 232 nm in purified Pdu MCPs” value [1] was “no measureable PduP activity without added HS-CoA, NAD^+ or propionaldehyde”.

B1: PduQ-His6 (Salmonella enterica subsp. enterica serovar Typhimurium str. LT2) (protein)
chain: MNTFSLQTRLYSGQGSLAVLKRFTNKHIWIICDGFLAHSPLLDTLRNALPADNRISVFSEITPDPTIHTVVQGIAQMQALQPQVVIGFGGGSAMDAAKAIVWFSQQSGINIETCVAIPTTSGTGSEVTSACVISDPDKGIKYPLFNNALYPDMAILDPELVVSVPPQITANTGMDVLTHALEAWVSPRASDFTDALAEKAAKLVFQYLPTAVEKGDCVATRGKMHNASTLAGMAFSQAGLGLNHAIAHQLGGQFHLPHGLANALLLTTVIRFNAGVPRAAKRYARLAKACGFCPAEANDIAAINALIQQIELLKQRCVLPSLAVALKEGRSDFSARIPAMVQAALADVTLRTNPRPANAEAIRELLEELL
notes: full length, C-terminal His6 kept, pET-41a in E. coli BL21(DE3) RIL, anaerobic Ni-NTA
With B1 the Km [2] was “(95.8±9.2)×10^3 µM”, the Vmax [2] was 8.4 µmol/min/mg and the kcat [2] was 5.64 s⁻¹. For the same molecule, the kcat/Km [2] was 58.9 M⁻¹ s⁻¹, the Km [3] was 267.5 ± 22.3 µM and the Vmax [3] was 9.2 µmol/min/mg. It also gave a kcat [3] of 6.18 s⁻¹, a kcat/Km [3] of 23100 M⁻¹ s⁻¹ and a Km [4] of 45.3 ± 5.3 µM. It also gave a Vmax [4] of 77.7 µmol/min/mg, a kcat [4] of 52.2 s⁻¹ and a kcat/Km [4] of 1.15e+06 M⁻¹ s⁻¹. The Km [5] was “(16.0±2.0)×10^3 µM”, the Vmax [5] was 81.3 µmol/min/mg and the kcat [5] was 54.6 s⁻¹. For the same molecule, the kcat/Km [5] was 3410 M⁻¹ s⁻¹.
